The target in the data set is GFP-pNLRC3-8xHis (Sus scrofa (pig), UniProt A0A287AW79 1-1066). The data set can be described thus: MST.

This is an account of results in article PMC11544074.

A word on the Kd: it is the concentration at which binding is half-saturated. Lower therefore signals a tighter complex.

B1: HSV120 dsDNA (unlabelled) (dsDNA)
DNA 1: TAAGACACGATGCGATAAAATCTGTTTGTAAAATTTATTAAGGGTACAAATGCCCTAGCTAGACACGATGCGATAAAATCTGTTTGTAAAATTTATTAAGGGTACAAATTGCCCTAGC
DNA 2: GCTAGGGCAATTTGTACCCTTAATAAATTTTACAAACAGATTTTATCGCATCGTGTCTAGCTAGGGCATTTGTACCCTTAATAAATTTTACAAACAGATTTTATCGCATCGTGTCTTA
As to B1, the affinity, expressed as Kd, was 10.1 µM.
